Test system: TRMT10C (native, untagged, in complex);SDR5C1 (Homo sapiens;Homo sapiens)
Assay: EMSA
Settings: concentration refers to TRMT10C content; EMSA: 1 nM 5'-labelled pre-tRNA, 10 nM-1.2 uM protein, methylation/processing buffer (composition not in material) + 100 mM sucrose, 30 min at room …

Row | Substance | Kd [nM]
1 | (mt)pre-tRNAIle | 88
2 | (mt)pre-tRNAHis | 143

From publication PMC3526285
